Laboratory results as given in the supplement of paper PMC9170038.

Assays:
MS2 coat protein [1] = test: apparent KD of MS2 coat protein, switch OFF state (with FMN for OFF switches, without FMN for ON switches); designed switch direction (-1 OFF switch, 1 ON switch): -1; higher = weaker reporter binding; settings: FMN input: 0 or 200 uM; Eterna round: R93 (includes R88 designs)
In short: (§1)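 Apparent KD is reported per design as the median of normalised binding-curve fits across its clusters. The RNA switches were made by on-chip transcription from Illumina sequencing clusters. SNAP-549-labelled MS2 coat protein was then added in twofold steps (0.7 or 1.5 nM to 3 µM; 0.8–1.5 h to 10–20 min per step) in 100 mM Tris-HCl pH 7.5, 80 mM KCl, 4 mM MgCl2, without or with constant ligand.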

MS2 coat protein [2] = test: apparent KD of MS2 coat protein, switch ON state; designed switch direction (-1 OFF switch, 1 ON switch): -1; higher = weaker reporter binding; settings: FMN input: 0 or 200 uM; Eterna round: R93 (includes R88 designs)
In short: as §1

Row | Sequence | apparent KD of MS2 coat protein (MS2 coat protein [1]) [nM] | apparent KD of MS2 coat protein (MS2 coat protein [2]) [nM]
1 | AAUAAACAUGAGGAUCACCCAUGUCAGGAUAUCCUAAAUAAAAAAAUAUAAAGAAGAAGGAGAAGGGACUAAAA [Mystem Exclusion 1] | 53.5 | 47.2
2 | CAAAGUGGAGGAUAUACAUGAGGAUCACCCAUGUAAGGACAAUAAAUAAGAAGAAGAAGUAGAAGGCCACUCAA [e3-2] | 40.2 | 28.9
3 | AGUUGGCGAGGAUAUACAUGAGGAUCACCCAUGUGAGAGAAAAAAGUGGAAAAGAAAAGUAGAAGGCGCUGACA [Mat - Exclusion 3 - Lego mod - D90] | 119 | 39.4
4 | AAAAAGUGAGGAUAUACGAGGAGAAACAACAAACAAACAAAACAUGAGGAUCACCCAUGUAGAAGGCACAAAAA [Ex 2 sub 3] | 28.6 | 22.4
5 | AGCAGUACAGGAUAUACAUGAGGAUCACCCAUGUGAAAAGAAAGUGGCGUACCACAAAGUAGAAGGGUACUGCA [Mat - Exclusion 3 - JL mod - D33] | 180 | 27.9
6 | AUAAAACAUGAGGAUCACCCAUGUGAGGAUAUGCGAAAGAAAGAAAGAAAGAAAGAAAGCAGAAGGCACAAUAA [Amethyst 42] | 32.6 | 30.1
7 | AAGAAACAUGAGGAUCACCCAUGUGAGGAUAUCAAAAAGAAAAGAAAAGAAAGAAGAAUGAGAAGGCACAAAGG [Mery—] | 32.5 | 30.5
8 | GAAAAACAUGAGGAUCACCCAUGUGAGGAUAUGAACGAAAUAAAAUAAAAAUAAAAGUUCAGAAGGCACAAAAG [Mat - Exclusion 1 - Eli mod - D12] | 69.9 | 34
9 | AACAGUACAGGAUAUACAUGAGGAUCACCCAUGUGAUAUAAAUAAAACAAAAAUAAAAGUAGAAGGGUACUGGA [Ruby 44] | 70.8 | 25.7
10 | AAGAAUGGAGGAUAUACAUGAGGAUCACCCAUGUAAAAGAAAGAAAGGGAAAAGAAAAGUAGAAGGCCAAAGAA [Hedjkheperre Harsiese] | 42.1 | 46.6
11 | AGUCAUACAGGAUAUACAUGAGGAUCACCCAUGUAUAUCCAAAAAAAAAAAAAAACAUGUAGAAGGGUAUGACA [EX3 207: Super Stable 7] | 7.41 | 10.8
12 | AGGAAACAUGAGGAUCACCCAUGUGAGGAUAUGAACGAAAUAAAAUAAAAAUAAAAGUUCAGAAGGCAUAAAAA [Mat - Exclusion 1 - Eli mod - D7] | 24.4 | 26.8
13 | AAAGUGUGAGGAUAUGCGAAAGGACACGAAAGUGACAAAGAGCAGAAGGUACAUGAGGAUCACCCAUGUAAAAA [milkweed 19] | 20.4 | 27.2
14 | CAAAGGUGAGGAUAUGCAUAACUAUGACGAAAGUCAUAAACACAUGAGGAUCACCCAUGUAGAAGGCACCACAA [e2-2] | 18.8 | 37.2
15 | AAGCUGGUAGGAUAUACUAGGGCAACUAAUGAGCCGAUAGGACAUGAGGAUCACCCAUGUAGAAGGGCCAGAAA [Mat - Exclusion 2 - JL mod - D64] | 125 | 74.4
16 | AAAAAACAUGAGGAUCACCCAUGUGAGGAUAUCGGAGGAGGAGGAGGAGGAGGAGGAGCGAGAAGGUACAAAAA [salish99-Ex1-04] | 31.5 | 14.4
17 | GAAGAACAUGAGGAUCACCCAUGUGAGGAUAUACAGAAGGGAAUAAAAUAACCAGAAAGUAGAAGGCACAAGAA [Ex 1 May 40] | 45.7 | 35.1
18 | AACUGACAUGAGGAUCACCCAUGUCAGGAUAUGACUUCAAAAAAAAAAAAAAAUGAUGUCAGAAGGGACAUGAA [Design 62: Sub-opt L] | 19.3 | 24.4
19 | GGUUGGCGAGGAUAUACAUGAGGAUCACCCAUGUGAGAGAAAAAAGUGAGAAAGAAUAGUAGAAGGCGCUGACG [salish99-ex3-40] | 255 | 42.5
20 | AAAAAGUCAGGAUAUGUCAAAAGUCACAAAAGUGACAAAAGACAGAAGGGACAUGAGGAUCACCCAUGUAAAAA [Mod of Eli] | 46.1 | 53.1

Row | Sequence | apparent KD of MS2 coat protein (MS2 coat protein [1]) [nM] | apparent KD of MS2 coat protein (MS2 coat protein [2]) [nM]
21 | AAAAAACAUGAGGAUCACCCAUGUGAGGAUAUCCAAAAGAAAAGAAAAGAAAGAAGAAGGAGAAGGCACAAGAA [Khufu] | 47.9 | 55.2
22 | GUUGUGCGAGGAUAUAUGUGAGGUUUGCCUCAACAGGUAAUACAUGAGGAUCACCCAUGUAGAAGGCGCAUGAG [S1-(23.6);S2-(22.1) [87C]] | 342 | 67.3
23 | AGCUAGUCAGGAUAUACGAACAUGUAAAAAGAAGUGAAGGGACAUGAGGAUCACCCAUGUAGAAGGGACUAGAA [74%, Web mod - With 3 less C's] | 109 | 55.5
24 | ACAAACCGAGGAUAUACAUGAGGAUCACCCAUGUAGACGAACACAUGCGUCAUCACCAGUAGAAGGUGGAAAAC [Telaandi] | 26.3 | 29.9
25 | GGAAAACAUGAGGAUCACCCAUGUAAGGAUAUGCAAAAAAAGGAUAUAGAAGGAAAAAGCAGAAGGUACAAAGG [salish99-ex1-24] | 55.5 | 30.6
26 | AAGAAGGGAGGAUAUACAUGAGGAUCACCCAUGUAAAAGAAAGAAAAGGGAAAGAAAAGUAGAAGGCCCAAGAA [Seqenenre Tao] | 40.2 | 36.9
27 | AGUCUGAGAGGAUAUACAUGGAAAAAAAAAGUAAGAUCCCUACAUGAGGAUCACCCAUGUAGAAGGCUCUGACA [Ex2 Design 144: Sub-opt 8] | 22.7 | 41.7
28 | AAGAAACAAGGAUAUACAUGAGGAUCACCCAUGUAAAAGAAAGAAAGGGAAGAGAAAAGUAGAAGGUGUAAGAA [Publius Rubrius Barbarus] | 46 | 26.1
29 | AAGAAGAGAGGAUAUACUAAAGAAAUGAAAAGAAAUAAAGAACAUGAGGAUCACCCAUGUAGAAGGCUCAAGAA ['Ammu Ahotepre] | 21 | 25.5
30 | AAAGGACAAGGAUAUACAUGAGGAUCACCCAUGUAAAAAACAUAAUAAAAUAACUUAUGUAGAAGGUGUCCAAA [Mat - Exclusion 3 - Eli mod - D99] | 57.1 | 23.1
31 | AACUAGCUAGGAUAUACAUGAGGAUCACCCAUGUAAAAAAAAAAAAAAAGAUUUAUAUGUAGAAGGAGCUAGUA [Design 3 - Brourd - Exclusion 3] | 61.8 | 31.6
32 | AAAAAACAUGAGGAUCACCCAUGUGAGGAUAUCUAAAACAAAACAAAAACAAAACAAAGGAGAAGGUAUAUGAA [Amethyst 67] | 29.2 | 19
33 | AAAAAGAGAGGAUAUACAGGAGGACCACCACAAAAAAAAAUACAUGAGGAUCACCCAUGUAGAAGGCUCAAAAA [Default title] | 66.1 | 35.1
34 | GAAAAGUGAGGAUAUGUCAAAAGUCACAAAAGUGACAAAAGACAGAAGGCACAUGAGGAUCACCCAUGUGGAAG [Mat - Exaclusion 4 - Eli mod - D52] | 41.1 | 33.8
35 | GGGUACGCAGGAUAUACAUGAAAAAAAAAAAAAAAAAAAAAACAUGAGGAUCACCCAUGUAGAAGGGCGUAUCC [hsl_exclusion2] | 314 | 92.5
36 | AUAAAACAUGAGGAUCACCCAUGUGAGGAUAUGCGAAACAAACAAACAAACAAACAAAGCAGAAGGCACAAUAA [Amethyst 9] | 24.6 | 22.6
37 | AAAAAUCGAGGAUAUACAUGAGGAUCACCCAUGUGGGACCAAGAAAACACAAAAGAAAGUAGAAGGCGAUAAAA [Ex 3 May 23] | 76.4 | 21.9
38 | AACAAGUGAGGAUAUGAAAAUACAACAAACAAACAACUACAUCAGAAGGCACAUGAGGAUCACCCAUGUAAAAC [JR_Exc004_Sub1204] | 20.7 | 19
39 | GGUUGGCGAGGAUAUACAUGAGGAUCACCCAUGUGAGAGAAAAAAGUGAGGAAGAAAAGUAGAAGGCGCUGACG [salish99-ex3-14] | 636 | 32
40 | AAACAUGGAGGAUAUACAUGAGGAUCACCCAUGUGUAUGAAAAAAUAUACAAAAGAAUGUAGAAGGCCAUGAAA [Mat - Exclusion 3 - Mayanna mod - D102] | 47.8 | 26.9
